{
  "source": "patent US20070077212A1",
  "about": "“Protein with activity of hydrolyzing amylopectin, starch, glycogen and amylose, gene encoding the same, cell expressing the same, and production method thereof” (LIFENZA CO., LTD., priority 2004, published 2007)",
  "format_in_all_cases": "biochemical",
  "key": {"[1]": {"assay": "Effect of metal ions, chelating agents and denaturants on LSA enzyme activity", "procedure": "(§1) The reducing value of the carbohydrolase was determined by a DNS (3,5-dinitrosalicylic acid) method in combination with a copper-bicinchoninate method. That is, 100 μl of copper-bicinchoninate was added to 100 μl of an enzyme solution, and allowed to react at 80C. for 35 min, followed by being cooled for about 15 min. Absorbance was measured at 560 nm.\nEffects of EDTA, EGTA and metal ions on enzyme activity were measured. EDTA and EGTA were each used at a final concentration of 1 mM. As for metal ions, they included ZnCl2, CuS04, CaCl2 and MgCl2 and were used at a final concentration of 5 mM. The enzyme activity was also measured in the presence of dodesyl sulfate (SDS, 0.1%, 0.5%, 1%, 2%), urea (2M), acetone (0-80%) and ethanol (0-70%). For the measurement, the enzyme was allowed to react at 37° C. for 30 min with 2% starch as a substrate."}, "[2]": {"assay": "Assay for optimal pH and temperature and stability of enzyme", "procedure": "as §1\nThe enzyme LSA was assayed for optimal pH by measuring reaction rates in the range of pH 3-9 at intervals of pH 1.0. For this purpose, 2OmM citrate phosphate buffer (pH 4.0), citrate/phosphate buffer (pH 5-6) and sodium phosphate buffer (pH 7-9) were used. After reaction at 37° C. for […], the carbohydrolase activity of the enzyme was determined by a DNS method. Also, the pH stability of the enzyme was measured after the enzyme was added to each buffer and allowed to stand for 3 hours at 22° C.\nThe optimal temperature of the enzyme was determined by measuring the reaction rates of the enzyme which had been allowed to stand for 30 min at various temperatures (20-80° C., 10C. interval). […] 1% (w/v) starch was used as a substrate in determining the activity and stability of the enzyme."}, "[3]": {"assay": "Relative substrate specificity of LSA enzyme: starch", "procedure": "as §1"}, "[4]": {"assay": "Relative substrate specificity of LSA enzyme: amylopectin", "procedure": "as §1"}, "[5]": {"assay": "Relative substrate specificity of LSA enzyme: glycogen", "procedure": "as §1"}, "[6]": {"assay": "Relative substrate specificity of LSA enzyme: amylose", "procedure": "as §1"}, "[7]": {"assay": "Relative substrate specificity of LSA enzyme: amylodextrin", "procedure": "as §1"}, "[8]": {"assay": "Relative substrate specificity of LSA enzyme: dextran", "procedure": "as §1"}, "[9]": {"assay": "Relative substrate specificity of LSA enzyme: alpha-cyclodextrin", "procedure": "as §1"}, "[10]": {"assay": "Relative substrate specificity of LSA enzyme: pullulan", "procedure": "as §1"}, "[11]": {"assay": "TLC analysis of starch hydrolysis products", "details": "2% starch", "text": "(§2) Subsequently, the malto oligosaccharides were degraded into maltopentaose and lower oligosaccharides."}, "[12]": {"assay": "TLC analysis of reaction with maltooligosaccharide series", "details": "mixture of maltooligosaccharide series", "procedure": "FIG. 8 is a photograph of a TLC result showing the enzymatic activity of the LSA of the present invention in which starch samples (1% w/v) are analyzed, along with maltodextrin (Mn), before and after being hydrolyzed by the enzyme (lanes 1 and 2 in panel A, respectively) and maltooligosaccharide samples (1% w/v) are analyzed after purified LSA is allowed to react with a series of maltooligosaccharides including G1 (glucose) to G7 (maltoheptaose) (lanes 1 to 7 in panel B, respectively).\nas §2"}, "[13]": {"assay": "Activity staining on starch-containing PAGE gel", "details": "30 min at 37° C.", "procedure": "For sodium dodecyl sulfate-polyacrylamide gel electrophoresis (SDS-PAGE), protein samples were loaded onto 10% polyacrylamide gel in Tris-glycine buffer (pH 8.8). The polyacrylamide gel contained 1% starch in order to detect whether the protein samples could degrade starch polysaccharide. After completion of the electrophoresis, SDS was removed by washing the gel with 50 mM Tris-HCl buffer (pH 8.0) and a 20% 2-propanol solution for 1 hour. The gel was immersed in a reaction buffer (50 mM sodium acetate, 5 mM CaCl2, pH 5) at 37° C. for […] and then in an iodide solution (0.3% iodide, 3% potassium iodide) for 10 min, and washed with distilled water. The starch hydrolyzing activity was identified by the appearance of a clear zone against a brown background.\nFollowing IPTG induction in E. coli, the cells were harvested, and disrupted by sonication. Proteins were purified using His-tagged affinity column and analyzed by SDS-PAGE (10%) (FIG. 3, lane 1). The band for the mainly expressed protein corresponded to 73 kDa (LSA+His-tag). To examine the ability of the purified protein to degrade polysaccharides such as starch, electrophoresis was carried out using a PAGE gel containing starch. After completion of the electrophoresis, the gel was allowed to stand for 30 min at 37° C. and stained with an iodine solution. […]"}},
  "note": "Entries after “also recorded” stand apart in the source; their conditions may differ.",
  "data": [
    {"molecule": "LSA: carbohydrolase derived from Lipomyces starkeyi, amino acid sequence SEQ. ID. No. 1, expressed in E. coli; hydrolyzes amylopectin, starch, glycogen and amylose (protein, E. coli BL21(DE3)pLysS, ID; No. 1, expressed in E. coli; hydrolyzes amylopectin, starch, glycogen and amylose) MLLINFFIAVLGVISLSPIVVARYILRRDCTTVTVLSSPESVTSSNHVELASHEMCDSTLSASLYIYNDDYDKIVTLYYLTSSGTTGSVTASYSSSLSNNWELWSLSAPAADAVEITGASYVDSDASATYATSFDIPLTTTTTSSSSASATSTSSLTTTSSVSISVSVPTGTAANWRGRAIYEIVTDRFARTDGSTTYLCDVTDRVYCGGSYEGIINMLDYIEGMGFTAIWISPIVENIPDDTGYGYAYHGYWMKDIFALNTNFGTADDLIALATELHNRGMYLMVDIVVNHFAFSGSHADVDYSEYFPYSSEDYFHSFCWITDYSNETNVEQCWLGDDTVPLVDVNTELDTVKSEYQSWVEELIANYSIDGLRIDTVKHVEMDFWAPFEEAAGIYAVGEVFDGDPSYTCPYEENLDGVLNYPVYYPVVSAFESVSGSVSSLVDMIDTLKSECTDTTLLGSFLENEDNPRFPSYTSDESLIKNAIAFTMLSDGIPIIYYGEEQGLNGGNDPYNREALWLTGYSTTSTFYKYIASLNEIRNEAIYKDDTYLTYENWVIYSDSTTIAMRKGFTGNEIITVLSNLGTSGSSYTLTLSNTGYTASSVVYEILTCTAVTVDSSGNLAVPMSSGLPKVFYEESQLVGSGICSM", "values": [
      {"measurement": "effect on enzyme activity", "setting": "[1]; 1 mM EDTA", "value": "inhibited"},
      {"measurement": "increase of starch degradation activity", "setting": "[1]; 5 mM Ca+", "value": "about 315%"},
      {"measurement": "effect on starch degradation activity", "setting": "[1]; 5 mM Cu^2+", "value": "inhibited"},
      {"measurement": "increase of starch degradation activity", "setting": "[1]; 5 mM Mg^2+", "value": "~220", "unit": "%"},
      {"measurement": "increase in activity", "setting": "[1]; 10-20% ethanol solution", "value": "1.25-1.33 fold"},
      {"measurement": "increase in activity", "setting": "[1]; 10-40% acetone", "value": "1.03-1.22 fold"},
      {"measurement": "activity relative to optimal activity", "setting": "[1]; 60% acetone", "value": "lower than 50%"},
      {"measurement": "activity relative to optimal activity", "setting": "[1]; 60% ethanol", "value": "lower than 50%"},
      {"measurement": "Relative Activity (%)", "setting": "[1]; Acetone 20%", "value": 122, "unit": "%"},
      {"measurement": "Relative Activity (%)", "setting": "[1]; Acetone 30%", "value": 115, "unit": "%"},
      {"measurement": "Relative Activity (%)", "setting": "[1]; CaCl2 5 mM", "value": 315, "unit": "%"},
      {"measurement": "Relative Activity (%)", "setting": "[1]; CaCl2 + EDTA 5 mM/1 mM", "value": 185, "unit": "%"},
      {"measurement": "Relative Activity (%)", "setting": "[1]; CuSO4 5 mM", "value": 20, "unit": "%"},
      {"measurement": "Relative Activity (%)", "setting": "[1]; CuSO4 + EDTA 5 mM/1 mM", "value": 12, "unit": "%"},
      {"measurement": "Relative Activity (%)", "setting": "[1]; EDTA 1 mM", "value": 46, "unit": "%"},
      {"measurement": "Relative Activity (%)", "setting": "[1]; EGTA 1 mM", "value": 105, "unit": "%"},
      {"measurement": "effect on enzyme activity", "setting": "[1]; EGTA (1 mM; EGTA-containing solution)", "value": "not inhibited; also recorded: not influenced"},
      {"measurement": "Relative Activity (%)", "setting": "[1]; MgCl2 5 mM", "value": 220, "unit": "%"},
      {"measurement": "Relative Activity (%)", "setting": "[1]; MgCl2 + EDTA 5 mM/1 mM", "value": 129, "unit": "%"},
      {"measurement": "effect on starch degradation activity", "setting": "[1]; SDS", "value": "completely inhibited"},
      {"measurement": "Relative Activity (%)", "setting": "[1]; SDS 0.1%", "value": 66, "unit": "%"},
      {"measurement": "Relative Activity (%)", "setting": "[1]; SDS 0.5%", "value": 49, "unit": "%"},
      {"measurement": "Relative Activity (%)", "setting": "[1]; SDS 1%", "value": 24, "unit": "%"},
      {"measurement": "Relative Activity (%)", "setting": "[1]; SDS 2%", "value": 12, "unit": "%"},
      {"measurement": "Relative Activity (%)", "setting": "[1]; Urea 2M", "value": 115, "unit": "%"},
      {"measurement": "effect on starch degradation activity", "setting": "[1]; acetone", "value": "increased"},
      {"measurement": "Relative Activity (%)", "setting": "[1]; additive: None, 2% starch, 37° C., 30 min", "value": 100, "unit": "%"},
      {"measurement": "effect on starch degradation activity", "setting": "[1]; urea", "value": "increased"},
      {"measurement": "optimum pH", "setting": "[2]", "value": 6, "unit": "pH"},
      {"measurement": "pH range in which activity is 90% of its maximum", "setting": "[2]", "value": "5-8 pH"},
      {"measurement": "pH range in which amylase activity is kept stably", "setting": "[2]", "value": "5-8 pH"},
      {"measurement": "temperature of optimal activity", "setting": "[2]; 1% (w/v) starch", "value": 40, "unit": "°C"},
      {"measurement": "temperature range of stability", "setting": "[2]; 1% (w/v) starch", "value": "20-50 °C"},
      {"measurement": "activity after incubation, relative to stable temperatures", "setting": "[2]; incubation at 60° C. for 3 hours", "value": 70, "unit": "%"},
      {"measurement": "degradation of starch (soluble) (in words)", "setting": "[3]", "value": "strongly"},
      {"measurement": "Relative Activity (%)", "setting": "[3]; substrate Starch", "value": 100, "unit": "%"},
      {"measurement": "degradation of amylopectin (in words)", "setting": "[4]", "value": "strongly"},
      {"measurement": "Relative Activity (%)", "setting": "[4]; substrate Amylopectin, relative to starch", "value": 141, "unit": "%"},
      {"measurement": "degradation of glycogen (in words)", "setting": "[5]", "value": "strongly"},
      {"measurement": "Relative Activity (%)", "setting": "[5]; substrate Glycogen, relative to starch", "value": 80, "unit": "%"},
      {"measurement": "degradation of amylose (in words)", "setting": "[6]", "value": "weakly"},
      {"measurement": "Relative Activity (%)", "setting": "[6]; substrate Amylose, relative to starch", "value": 41, "unit": "%"},
      {"measurement": "degradation of amylodextrin (in words)", "setting": "[7]", "value": "weakly"},
      {"measurement": "Relative Activity (%)", "setting": "[7]; substrate Amylodextrin, relative to starch", "value": 17, "unit": "%"},
      {"measurement": "degradation of dextran (in words)", "setting": "[8]", "value": "degrade; also recorded: weakly"},
      {"measurement": "Relative Activity (%)", "setting": "[8]; substrate Dextran, relative to starch", "value": 4, "unit": "%"},
      {"measurement": "degradation of a-cyclodextrin (in words)", "setting": "[9]", "value": "degrade; also recorded: weakly"},
      {"measurement": "Relative Activity (%)", "setting": "[9]; substrate alpha-CD, relative to starch", "value": 4, "unit": "%"},
      {"measurement": "degradation of pullulan (in words)", "setting": "[10]", "value": "degrade; also recorded: weakly"},
      {"measurement": "Relative Activity (%)", "setting": "[10]; substrate Pullulan, relative to starch", "value": 3, "unit": "%"},
      {"measurement": "hydrolysis products, early stage of reaction", "setting": "[11]", "value": "oligosaccharides larger than maltopentaose were produced"},
      {"measurement": "hydrolysis products, final", "setting": "[11]", "value": "maltotriose and maltotetraose were predominant"},
      {"measurement": "degradation products of G6", "setting": "[12]", "value": "G2+G4 or into G3+G3"},
      {"measurement": "hydrolysis of G2", "setting": "[12]", "value": "did not hydrolyze"},
      {"measurement": "hydrolysis of G3", "setting": "[12]", "value": "did not hydrolyze"},
      {"measurement": "starch degradation on gel, iodine staining", "setting": "[13]", "value": "clear zone"}
    ]}
  ]
}
